# Results reported in paper PMC12499500, “Structural Basis of GABAB Receptor Activation during Evolution” (Advanced Science, 2025).
# T1: human GB2 Δ753 (human, UniProt O75899 42-753)
# T1 sequence (looked up): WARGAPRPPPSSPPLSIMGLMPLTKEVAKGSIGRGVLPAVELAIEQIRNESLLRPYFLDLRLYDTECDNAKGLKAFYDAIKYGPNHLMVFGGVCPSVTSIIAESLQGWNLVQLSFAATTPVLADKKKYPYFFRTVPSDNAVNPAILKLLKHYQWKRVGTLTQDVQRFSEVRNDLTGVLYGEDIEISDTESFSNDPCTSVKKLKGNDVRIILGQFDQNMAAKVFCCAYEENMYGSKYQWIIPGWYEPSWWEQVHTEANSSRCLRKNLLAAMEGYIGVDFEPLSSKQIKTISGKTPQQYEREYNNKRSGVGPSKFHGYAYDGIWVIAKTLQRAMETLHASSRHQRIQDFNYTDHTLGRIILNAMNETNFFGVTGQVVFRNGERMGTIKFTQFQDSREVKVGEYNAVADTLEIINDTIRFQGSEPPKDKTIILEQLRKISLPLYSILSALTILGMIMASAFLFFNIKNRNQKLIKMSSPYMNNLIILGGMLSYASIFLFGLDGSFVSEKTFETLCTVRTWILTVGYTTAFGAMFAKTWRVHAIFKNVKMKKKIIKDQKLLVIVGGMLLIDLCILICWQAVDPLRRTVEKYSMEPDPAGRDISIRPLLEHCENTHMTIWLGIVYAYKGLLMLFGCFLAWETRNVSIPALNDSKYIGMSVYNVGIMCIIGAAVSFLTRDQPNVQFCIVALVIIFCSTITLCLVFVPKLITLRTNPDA
# T2: human GB2 Δ765 (human, UniProt O75899 42-765)
# T2 sequence (looked up): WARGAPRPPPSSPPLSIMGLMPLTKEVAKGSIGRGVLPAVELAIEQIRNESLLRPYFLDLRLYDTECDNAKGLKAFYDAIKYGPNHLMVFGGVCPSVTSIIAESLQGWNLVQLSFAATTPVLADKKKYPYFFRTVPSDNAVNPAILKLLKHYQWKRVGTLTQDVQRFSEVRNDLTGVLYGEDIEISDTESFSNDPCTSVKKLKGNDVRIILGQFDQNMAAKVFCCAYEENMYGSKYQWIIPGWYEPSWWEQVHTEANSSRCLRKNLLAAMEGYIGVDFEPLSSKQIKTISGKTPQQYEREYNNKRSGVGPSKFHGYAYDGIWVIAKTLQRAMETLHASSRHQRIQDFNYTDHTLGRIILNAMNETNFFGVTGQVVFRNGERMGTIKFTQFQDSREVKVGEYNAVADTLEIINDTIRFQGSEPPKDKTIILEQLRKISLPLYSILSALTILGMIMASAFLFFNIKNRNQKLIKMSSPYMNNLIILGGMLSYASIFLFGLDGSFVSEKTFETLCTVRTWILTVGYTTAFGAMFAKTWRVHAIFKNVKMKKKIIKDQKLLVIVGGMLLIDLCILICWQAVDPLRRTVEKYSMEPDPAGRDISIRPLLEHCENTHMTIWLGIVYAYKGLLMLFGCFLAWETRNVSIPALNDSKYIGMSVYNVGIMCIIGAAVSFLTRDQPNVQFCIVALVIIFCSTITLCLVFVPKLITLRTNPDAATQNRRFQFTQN
# T3: human GB2 Δ772 (human, UniProt O75899 42-772)
# T3 sequence (looked up): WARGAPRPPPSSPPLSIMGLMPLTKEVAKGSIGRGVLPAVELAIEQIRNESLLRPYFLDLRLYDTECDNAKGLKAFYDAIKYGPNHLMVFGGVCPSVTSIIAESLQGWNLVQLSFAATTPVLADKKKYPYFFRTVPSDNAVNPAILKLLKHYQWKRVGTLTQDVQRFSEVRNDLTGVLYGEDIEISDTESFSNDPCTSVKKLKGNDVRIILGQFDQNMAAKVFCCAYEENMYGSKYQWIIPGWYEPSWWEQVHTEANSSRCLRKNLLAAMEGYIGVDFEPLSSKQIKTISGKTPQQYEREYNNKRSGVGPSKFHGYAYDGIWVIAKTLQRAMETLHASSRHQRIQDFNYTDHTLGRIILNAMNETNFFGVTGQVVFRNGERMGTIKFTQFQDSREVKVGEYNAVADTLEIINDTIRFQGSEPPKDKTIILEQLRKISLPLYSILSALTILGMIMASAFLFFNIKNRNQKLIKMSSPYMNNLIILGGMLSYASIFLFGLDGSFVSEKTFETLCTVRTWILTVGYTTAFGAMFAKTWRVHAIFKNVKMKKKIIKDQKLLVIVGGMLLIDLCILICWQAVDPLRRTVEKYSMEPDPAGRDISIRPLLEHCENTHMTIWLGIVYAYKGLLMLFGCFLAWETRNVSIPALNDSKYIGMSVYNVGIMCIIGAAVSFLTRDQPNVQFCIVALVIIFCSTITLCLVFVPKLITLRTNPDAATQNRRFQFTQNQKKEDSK
# T4: human GB2 Δ760 (human, UniProt O75899 42-760)
# T4 sequence (looked up): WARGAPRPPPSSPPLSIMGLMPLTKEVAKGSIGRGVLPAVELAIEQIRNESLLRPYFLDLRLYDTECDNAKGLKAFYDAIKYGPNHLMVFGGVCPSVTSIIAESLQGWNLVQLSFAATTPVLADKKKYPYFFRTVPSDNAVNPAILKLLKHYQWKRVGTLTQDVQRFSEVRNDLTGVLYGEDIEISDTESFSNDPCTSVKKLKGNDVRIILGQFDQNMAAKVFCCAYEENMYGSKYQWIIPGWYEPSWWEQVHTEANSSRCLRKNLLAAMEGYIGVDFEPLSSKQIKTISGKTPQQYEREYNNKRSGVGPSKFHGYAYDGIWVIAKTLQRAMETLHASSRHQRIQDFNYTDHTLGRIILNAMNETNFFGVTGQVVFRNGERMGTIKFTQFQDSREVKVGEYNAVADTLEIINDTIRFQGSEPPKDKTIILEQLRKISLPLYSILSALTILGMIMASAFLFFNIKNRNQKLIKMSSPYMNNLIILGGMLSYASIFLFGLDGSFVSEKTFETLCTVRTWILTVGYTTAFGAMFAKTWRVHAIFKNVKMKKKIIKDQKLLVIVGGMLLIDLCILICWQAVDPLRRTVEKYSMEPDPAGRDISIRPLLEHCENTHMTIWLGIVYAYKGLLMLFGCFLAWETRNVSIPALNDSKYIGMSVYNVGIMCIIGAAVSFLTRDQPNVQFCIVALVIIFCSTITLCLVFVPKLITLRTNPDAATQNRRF
# Legend:
# Experiment in all cases: cell-based or functional assay
# [1] = target: T1, human GB2 Δ753
# [2] = target: T2, human GB2 Δ765
# [3] = target: dGB2 4 × GSG (ordered C-terminus 717–728 replaced by four glycine-serine-glycine) (Drosophila melanogaster, UniProt Q9BML6 1-1220, 4 × GSG: residues 717–728 replaced with four consecutive glycine-serine-glycine)
# dGB2 4 × GSG (ordered C-terminus 717–728 replaced by four glycine-serine-glycine), sequence (Q9BML6 entry or part of it with the stated changes): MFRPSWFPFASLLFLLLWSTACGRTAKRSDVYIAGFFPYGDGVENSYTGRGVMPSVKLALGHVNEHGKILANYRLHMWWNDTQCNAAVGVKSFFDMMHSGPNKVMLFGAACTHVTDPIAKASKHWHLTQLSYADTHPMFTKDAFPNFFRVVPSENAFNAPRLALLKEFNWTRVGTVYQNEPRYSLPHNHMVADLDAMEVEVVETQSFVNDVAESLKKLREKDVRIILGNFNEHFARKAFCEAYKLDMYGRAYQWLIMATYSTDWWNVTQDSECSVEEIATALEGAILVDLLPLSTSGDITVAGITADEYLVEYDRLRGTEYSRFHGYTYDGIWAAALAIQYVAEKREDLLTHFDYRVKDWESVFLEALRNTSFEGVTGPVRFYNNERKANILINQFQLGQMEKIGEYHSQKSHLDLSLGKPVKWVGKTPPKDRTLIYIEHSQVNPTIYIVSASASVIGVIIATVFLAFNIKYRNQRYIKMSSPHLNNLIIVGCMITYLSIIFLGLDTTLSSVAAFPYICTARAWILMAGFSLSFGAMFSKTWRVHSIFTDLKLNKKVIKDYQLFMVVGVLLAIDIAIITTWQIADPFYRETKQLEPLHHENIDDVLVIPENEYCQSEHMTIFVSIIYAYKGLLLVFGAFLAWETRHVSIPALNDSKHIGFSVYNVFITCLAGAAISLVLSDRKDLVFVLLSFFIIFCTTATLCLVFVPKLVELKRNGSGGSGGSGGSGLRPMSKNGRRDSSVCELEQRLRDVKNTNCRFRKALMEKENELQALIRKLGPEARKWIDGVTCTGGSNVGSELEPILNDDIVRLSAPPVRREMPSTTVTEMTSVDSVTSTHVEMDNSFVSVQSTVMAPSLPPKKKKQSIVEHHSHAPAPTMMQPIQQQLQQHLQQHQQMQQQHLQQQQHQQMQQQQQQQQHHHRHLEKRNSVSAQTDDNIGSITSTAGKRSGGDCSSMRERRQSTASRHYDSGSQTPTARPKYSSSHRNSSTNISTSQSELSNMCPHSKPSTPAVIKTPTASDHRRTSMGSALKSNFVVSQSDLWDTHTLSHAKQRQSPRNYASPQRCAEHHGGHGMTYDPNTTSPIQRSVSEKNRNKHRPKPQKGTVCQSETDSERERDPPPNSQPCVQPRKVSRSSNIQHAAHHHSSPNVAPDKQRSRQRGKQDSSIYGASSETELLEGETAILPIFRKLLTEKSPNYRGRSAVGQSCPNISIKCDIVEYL
# [4] = target: T3, human GB2 Δ772
# [5] = target: T4, human GB2 Δ760
# [6] = target: dGB2 12A (ordered C-terminus 717–728 replaced by 12 alanines) (Drosophila melanogaster, UniProt Q9BML6 1-1220, 12A: residues 717–728 replaced with 12 consecutive alanine residues)
# dGB2 12A (ordered C-terminus 717–728 replaced by 12 alanines), sequence (Q9BML6 entry or part of it with the stated changes): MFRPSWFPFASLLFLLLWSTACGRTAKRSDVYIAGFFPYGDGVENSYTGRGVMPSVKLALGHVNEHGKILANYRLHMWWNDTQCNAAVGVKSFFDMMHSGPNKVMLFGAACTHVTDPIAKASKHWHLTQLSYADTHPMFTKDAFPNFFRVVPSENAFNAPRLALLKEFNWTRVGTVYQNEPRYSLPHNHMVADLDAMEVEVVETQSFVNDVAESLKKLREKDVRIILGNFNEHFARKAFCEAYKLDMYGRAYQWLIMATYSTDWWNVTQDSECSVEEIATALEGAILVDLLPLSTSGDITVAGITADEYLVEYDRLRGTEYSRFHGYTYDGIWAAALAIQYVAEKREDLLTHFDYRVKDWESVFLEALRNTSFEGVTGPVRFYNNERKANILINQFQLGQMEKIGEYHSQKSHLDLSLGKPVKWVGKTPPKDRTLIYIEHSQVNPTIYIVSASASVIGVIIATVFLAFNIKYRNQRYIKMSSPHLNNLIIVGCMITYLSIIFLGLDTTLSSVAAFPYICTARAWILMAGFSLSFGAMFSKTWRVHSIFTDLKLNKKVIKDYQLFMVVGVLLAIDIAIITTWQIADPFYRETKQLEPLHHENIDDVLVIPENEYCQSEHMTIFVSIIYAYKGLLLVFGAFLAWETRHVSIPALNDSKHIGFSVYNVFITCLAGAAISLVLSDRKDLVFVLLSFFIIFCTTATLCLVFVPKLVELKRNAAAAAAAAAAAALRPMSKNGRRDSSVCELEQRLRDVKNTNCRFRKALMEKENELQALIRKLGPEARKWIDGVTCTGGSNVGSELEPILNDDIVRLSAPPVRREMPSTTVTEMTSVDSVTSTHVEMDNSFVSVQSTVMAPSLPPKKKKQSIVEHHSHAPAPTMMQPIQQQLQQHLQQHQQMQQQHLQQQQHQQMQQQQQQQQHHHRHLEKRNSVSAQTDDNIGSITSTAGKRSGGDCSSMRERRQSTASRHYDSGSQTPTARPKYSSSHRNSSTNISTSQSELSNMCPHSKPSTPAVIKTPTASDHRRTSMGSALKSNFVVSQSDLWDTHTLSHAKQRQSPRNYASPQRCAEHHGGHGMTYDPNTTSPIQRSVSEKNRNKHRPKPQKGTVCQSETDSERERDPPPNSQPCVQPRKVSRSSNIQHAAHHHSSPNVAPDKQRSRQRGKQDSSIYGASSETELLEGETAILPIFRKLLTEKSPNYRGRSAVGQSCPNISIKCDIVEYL
binder,measurement,setting,value
"dominant-negative Gαi1 (S47N, G203A, E245A, A326S) (natural protein, human) MGCTLSAEDKAAVERSKMIDRNLREDGEKAAREVKLLLLGAGESGKNTIVKQMKIIHEAGYSEEECKQYKAVVYSNTIQSIIAIIRAMGRLKIDFGDSARADDARQLFVLAGAAEEGFMTAELAGVIKRLWKDSGVQACFNRSREYQLNDSAAYYLNDLDRIAQPNYIPTQQDVLRTRVKTTGIVETHFTFKDLHFKMFDVGAQRSERKKWIHCFEGVTAIIFCVALSDYDLVLAEDEEMNRMHASMKLFDSICNNKWFTDTSIILFLNKKDLFEEKIKKSPLTICYPEYAGSNTYEEAAAYIQCQFEDLNKRKDTKEIYTHFTCSTDTKNVQFVFDAVTDVIIKNNLKDCGLF","GABA-induced intracellular Ca2+ release, HEK293 cells co-transfected with GB1ΔCC and the GB2 truncation, increase in EC50 against Δ780 of GB2",[1],30.8 fold
same,"GABA-induced intracellular Ca2+ release, HEK293 cells co-transfected with GB1ΔCC and the GB2 truncation, reduction in E max against Δ780 of GB2",[1],76 % reduction in E max
same,"GABA-induced intracellular Ca2+ release, HEK293 cells co-transfected with GB1ΔCC and the GB2 truncation, increase in EC50 against Δ780 of GB2",[2],9.4 fold
same,"GABA-induced intracellular Ca2+ release, HEK293 cells co-transfected with GB1ΔCC and the GB2 truncation, reduction in E max against Δ780 of GB2",[2],22 % reduction in E max
same,"BRET assay of GABA-induced dissociation of Gαi1 and Gβγ in HEK293 cells, change of EC50 against wild-type dGB2",[3],3 fold
same,"GABA-induced intracellular Ca2+ release, HEK293 cells co-transfected with GB1ΔCC and the GB2 truncation, increase in EC50 against Δ780 of GB2",[4],6.5 fold
same,"GABA-induced intracellular Ca2+ release, HEK293 cells co-transfected with GB1ΔCC and the GB2 truncation, increase in EC50 against Δ780 of GB2",[5],16.2 fold
same,"GABA-induced intracellular Ca2+ release, HEK293 cells co-transfected with GB1ΔCC and the GB2 truncation, reduction in E max against Δ780 of GB2",[5],39 % reduction in E max
same,"BRET assay of GABA-induced dissociation of Gαi1 and Gβγ in HEK293 cells, change of EC50 against wild-type dGB2",[6],8.8 fold
same,"GABA-induced intracellular Ca2+ release (Gqi9), change of EC50 of GABA against wild-type dGB2",[6],2 fold
